Data on four substances can be found in patent US20200048654A1.

The assay addresses rice XA21 receptor kinase (rice). The assay can be described thus: cell-based or functional assay.

In turn, RaxX39-sY (peptide) returned an EC50 of total ROS production over 3 h in Ubi::XA21 rice leaves of 70 nM.
For the substance RaxX21-sY (peptide), the EC50 of total ROS production over 3 h in Ubi::XA21 rice leaves is 20 nM.
Under RaxX24-sY (peptide) stands 30 nM.
“RaxX60-sY (full-length sulfated recombinant RaxX-His from Xoo PXO99) (ligand)” returned an EC50 of total ROS production over 3 h in Ubi::XA21 rice leaves of 100 nM.
